Source: publication PMC12603323

B1: SPOP (Speckle-type POZ protein): S58/59 A (protein)
parent chain: MSRVPSPPPPAEMSSGPVAESWCYTQIKVVKFSYMWTINNFSFCREEMGEVIKSSTFSSGANDKLKWCLRVNPKGLDEESKDYLSLYLLLVSCPKSEVRAKFKFSILNAKGEETKAMESQRAYRFVQGKDWGFKKFIRRDFLLDEANGLLPDDKLTLFCEVSVVQDSVNISGQNTMNMVKVPECRLADELGGLWENSRFTDCCLCVAGQEFQAHKAILAARSPVFSAMFEHEMEESKKNRVEINDVEPEVFKEMMCFIYTGKAPNLDKMADDLLAAADKYALERLKVMCEDALCSNLSVENAAEILILADLHSADQLKTQAVDFINYHASDVLETSGWKSMVVSHPHLVAEAYRSLASAQCPFLGPPRKRLKQS
B2: SPOP (Speckle-type POZ protein): OSMI-1 (protein)
parent chain: B1 parent chain

Columns and labels:
[1] = HA-Ub co-transfection, IP, 293T; details: glycan lost; control: SPOP-WT
[2] = HA-Ub, MYC-β-catenin IP, 293T; details: glycan lost; control: SPOP-WT
WB, CRC cells = details: glycan lost; control: SPOP-WT
WB of SPOP, HCT116 = details: glycan lost; control: untreated cells

Protein	other: ubiquitination of SPOP [1]	other: substrate β-catenin ubiquitination [2]	other: substrate β-catenin protein level (WB, CRC cells)	expression_or_secretion (WB of SPOP, HCT116)
B1	increases	increases	decreases	
B2				increases
